This experiment deals with RON on RON-transfected NIH 3T3 cells (UniProt Q04912). Nature of the experiment: IHC on FFPE RON-transfected NIH3T3 cells, Aperio Positive Pixel Count.

In turn, EP1132Y antibody (Anti-RON) yielded a Relative Positive Pixel Intensity Score of 221.
